Results as given in paper PMC7671560, “SAXS studies of X-ray induced disulfide bond damage: Engineering high-resolution insight from a low-resolution technique” (PLoS ONE, 2020).

Molecular target: the molecule itself
Experiment: SEC; Superdex 200 10/300 in 20 mM Tris-HCl pH 7.5, 50 mM NaCl, 5 mM EDTA; 100 uL at about 5 mg/ml injected; elution times compared to a standard curve; monomer to disulfide-linked dimer

B1: endoHCYS (FRAGCYS-endoH-His6; Endoglycosidase-H with a 7 aa cysteine-containing fragment on its N-terminus) (enzyme)
chain: SLSTGCYVKQGPTSVAYVEVNNNSMLNVGKYTLADGGGNAFDVAVIFAANINYDTGTKTAYLHFNENVQRVLDNAVTQIRPLQQQGIKVLLSVLGNHQGAGFANFPSQQAASAFAKQLSDAVAKYGLDGVDFDDEYAEYGNNGTAQPNDSSFVHLVTALRANMPDKIISLYNIGPAASRLSYGGVDVSDKFDYAWNPYYGTWQVPGIALPKAQLSPAAVEIGRTSRSTVADLARRTVDEGYGVYLTYNLDGGDRTADVSAFTRELYGSEAVRTP
notes: 7 aa fragment with a single free cysteine ('FRAGCYS') attached to the flexible N-terminus of endoH; Endoglycosidase-H (endoH), P04067, aa 47-313; has no native cysteines; The chain is written once as the protomer; two protomers join through an intermolecular disulfide between the cysteines of FRAGCYS (about 75% dimer, 25% monomer in the preparation); The structure's own numbering has Val-8 as the …
With B1 as the protein, how does the “stoichiometry N” value read?
Its value is 2.
